Test results reported in PMC11574021, “CEP192 localises mitotic Aurora-A activity by priming its interaction with TPX2” (The EMBO Journal, 2024).
Changes are numbered by the printed parent chain. Names may count otherwise. Where no end group is shown, it is not given here. FAM = 5(6)-carboxyfluorescein

Legend:
[1] = biological target: FAM-CEP192 501–533 (human) (UniProt Q8TEP8); assay: fluorescence polarisation; direct fluorescence anisotropy: Aurora-A diluted across the plate, 50 nM tracer FAM-CEP192 501–533; 25 mM HEPES pH 7.5, 150 mM NaCl, 2 mM DTT, 5 mM MgCl2, 0.01% Tween 20; 1 h at room temperature
Aurora-A = conditions: cited from earlier work; for effect on Aurora-A activity: ADP-Glo based assay, ref Park et al. 2023 Figure 3 F-H
Excerpt: page 22: have elected to test PLK1 localization. In the absence of a direct test, they could nevertheless refer to the observations of Joukov et al. We find that PLK1 localisation is normal in ∆11 cells and have include d this new data (Fig. EV8) -Figure 5A-B: The scheme could be made clearer. Why is CEP192 depicted in blue and grey in panel A, green and grey in panel B (grey in scheme of excision sites). Why not use color consistently? […] We have ch ...

human CEP192 468–533 = biological target: T1, human CEP192 468–533 (human, UniProt Q8TEP8 468-533); assay: ITC; 250 μM Aurora-A in the syringe, 25 μM CEP192 construct in the cell; 25 °C; 20 mM tris pH 7.5, 200 mM NaCl, 10% glycerol, 5 mM MgCl2
T1 construct: also called CEP192_(506-527_F); source: E. coli B834 RIL, purified (HisTrap, TEV cleavage, SEC); for crystallisation co-expressed with Aurora-A^M7KD and co-purified; not shown: His6, N-terminal, cleaved; SUMO, N-terminal, cleaved
T1 sequence (looked up): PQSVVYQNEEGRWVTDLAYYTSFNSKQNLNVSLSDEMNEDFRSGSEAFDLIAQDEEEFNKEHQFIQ

[2] = biological target: T2, Aurora-A^CAKD (Aurora-A kinase domain, aa 122–403 C290A, C393A), unphosphorylated (human, UniProt O14965 122-403, C290A | C393A); assay: fluorescence polarisation; competition: 10 μM unphosphorylated Aurora-A^CAKD preincubated with 100 nM FAM-TPX2 7-43, CEP192 competitor serially diluted; 25 mM HEPES pH 7.5, 150 mM NaCl, 2 mM DTT, 5 mM MgCl2, 0.01% Tween 20; conditions: both partners purified
T2 construct: Aurora-A kinase domain, human, residues 122-403, variant lacking surface cysteines; also called Aurora-A 122–403 C290A C393A; unphosphorylated Aurora-A^CAKD; source: E. coli RIL, co-expressed with lambda phosphatase, purified (HisTrap, TEV cleavage, SEC); not shown: His6, N-terminal, cleaved
T2 sequence (looked up): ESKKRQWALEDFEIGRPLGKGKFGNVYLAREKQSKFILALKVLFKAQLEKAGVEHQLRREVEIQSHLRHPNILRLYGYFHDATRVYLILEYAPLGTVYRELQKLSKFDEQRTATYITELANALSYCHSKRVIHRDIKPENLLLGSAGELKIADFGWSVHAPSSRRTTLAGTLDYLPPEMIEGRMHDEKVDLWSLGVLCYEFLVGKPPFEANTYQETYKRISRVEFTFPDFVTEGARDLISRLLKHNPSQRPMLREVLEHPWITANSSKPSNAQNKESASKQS

[3] = biological target: T2, Aurora-A^CAKD (Aurora-A kinase domain, …); assay: fluorescence polarisation; competition: 25 μM Aurora-A kinase domain preincubated with 100 nM FAM-TACC3 522-536, CEP192 competitor serially diluted; 25 mM HEPES pH 7.5, 150 mM NaCl, 2 mM DTT, 5 mM MgCl2, 0.01% Tween 20; conditions: both partners purified
[4] = biological target: T3, phosphorylated Aurora-A CAKD (Homo sapiens, UniProt O14965, C290A/C393A); assay: ADP-Glo kinase assay, kemptide substrate; format: biochemical
T3 construct: 10 nM Aurora-A 122–403 C290A C393A phosphorylated protein; His (N, cleaved yes); made in house; host or cells: E. coli B834 (no lambda phosphatase)
T3 sequence (O14965 122-403 C290A/C393A): T2 sequence (looked up)
Method: Reactions were initiated by the addition of 10 μM ATP and 100 μM kemptide as substrate (Cambridge Bioscience Ltd). The reactions were incubated at room temperature for 60 min before 5 μl was transferred into 5 ul of ADP-Glo Reagent (Promega) in a 384-well low volume low binding plate (Greiner Bio-one). After a further 40 min at room temperature, 10 μl of kinase detection reagent was added to each well, and the reaction was allowed to incubate for an additional 30 min. Luminescence was measured on a HIDEX Sense plate reader (HIDEX) using a 1 s integration time. Control data was subtracted from the luminescence and three repeats were averaged before being fitted to a sigmoidal plot using Origin (OriginLab), where IC50 and EC50 values were calculated.

[5] = biological target: T3, phosphorylated Aurora-A CAKD; assay: Fluorescence anisotropy competition with FAM-CEP192 501-533, phosphorylated Aurora-A; format: binding; conditions: competition with 100 nM FAM-CEP192 501-533, 10 μM phosphorylated Aurora-A CAKD, n = 3
Method: (§1) Assays were performed in 25 mM HEPES pH 7.5, 150 mM NaCl, 2 mM DTT, 5 mM MgCl2, 0.01% Tween 20. For CEP192 and TPX2 competition assays 10 μM Aurora-A kinase domain (phosphorylated or unphosphorylated C290A C393A 122–403) was preincubated on ice with 100 nM FAM-TPX2 7-43 or 100 nM FAM-CEP192 501–533. For TACC3 competition, due to weaker binding, 25 μM Aurora-A kinase domain (phosphorylated or unphosphorylated C290A C393A 122–403) was preincubated with 100 nM FAM-TACC3 522-536. Serial dilutions of competitor (CEP192) were performed in triplicate into a low volume 384-well black plate, before the premixed Aurora-A and tracer were added. A control row included no tracer. Plates were left incubating for 1 h at room temperature before the fluorescence anisotropy was measured using a HIDEX plate reader, with excitation at 485 nm and emission at 535 nm. For direct binding experiments, the assay was performed as above, but the Aurora-A (122–403 C290A C393A or point mutants) was diluted across the plate from high to low concentration, before the addition of 50 nM tracer (FAM-CEP192 501–533) to three replicate rows. Buffer only was added to the control row.
(§2) Fluorescence anisotropy data were processed using Microsoft Excel to calculate intensity and anisotropy using the equation listed in (Yeo et al, [2013]). The IC50 and Kd values were calculated using Origin (OriginLab) where the data fitted to a sigmoid and are summarised in Appendix Table S3.

[6] = biological target: T4, unphosphorylated Aurora-A CAKD (Homo sapiens, UniProt O14965, C290A/C393A); assay: Fluorescence anisotropy competition with FAM-CEP192 501-533, unphosphorylated Aurora-A; format: binding; conditions: competition with 100 nM FAM-CEP192 501-533, 10 μM unphosphorylated Aurora-A CAKD, n = 3
T4 construct: 10 μM Aurora-A kinase domain (phosphorylated or unphosphorylated C290A C393A 122–403); His (N, cleaved yes); made in house; host or cells: E. coli RIL, co-expressed with lambda phosphatase
T4 sequence (O14965 122-403 C290A/C393A): T2 sequence (looked up)
Method: as §1, §2

Aurora-A^KD F165D (Aurora-A 122–403 F165D) (from UniProt O14965 122-403) (domain or fragment)
Kd [1]: > 5 µM

Aurora-A^KD R151A (Aurora-A 122–403 R151A) (from UniProt O14965 122-403) (domain or fragment)
Kd [1]: > 10 µM

CEP192 506-536: short CEP192 fragment used by Park et al 2023 (EDFRSGSEAFDLIAQDEEEFNKEHQFIQEEN; UniProt Q8TEP8 506-536, looked up, fragment)
effect on Aurora-A activity (Aurora-A): no effect seen

Aurora-A^KD F165D/R205A (Aurora-A 122–403 R205A F165D) (from UniProt O14965 122-403) (domain or fragment)
Kd (human CEP192 468–533): 26 µM | stoichiometry N (human CEP192 468–533): 0.87

B1: FAM-TPX2 7-43 (peptide, UniProt Q9ULW0 7-43, looked up)
peptide: {FAM}-SYSYDAPSDFINFSSLDDEGDTQNIDSWFEEKANLEN
notes: TPX2, residues 7-43; Made on Rink amide resin and labelled on resin after synthesis, so N-terminal label and C-terminal amide are likely; source: synthetic peptide
binding result [2]: binds

B2: CEP192 501–533 peptide (unlabelled) (peptide, UniProt Q8TEP8 501-533, looked up)
peptide: SDEMNEDFRSGSEAFDLIAQDEEEFNKEHQFIQ
notes: Probably synthesised as the labelled peptides (Rink amide resin); source: peptide
IC50 [3]: 29 µM

B3: FAM-TACC3 522-536 (peptide, UniProt Q9Y6A5 522-536, looked up)
peptide: {FAM}-EESFRDPAEVLGTGA
notes: Made on Rink amide resin and labelled on resin after synthesis, so N-terminal label and C-terminal amide are likely; source: synthetic peptide
binding result [3]: binds

B4: CEP192 468-533 Y487A/F490A: CEP192 468-533 mutant, two F-pocket residues replaced with alanine (protein)
chain: T1 sequence (looked up) with Y20A, F23A
modifications: left off: His6, N-terminal, cleaved | SUMO, N-terminal, cleaved
notes: CEP192 468-533 mutant, two F-pocket residues replaced with alanine
IC50 ([4]; 10 nM phosphorylated Aurora-A CAKD, 10 μM ATP, 100 μM kemptide, 60 min, n = 3): > 1 µM | effect on Aurora-A kinase activity ([4]; ADP-Glo, phosphorylated Aurora-A CAKD, kemptide, in words): less potent and less complete | IC50 [5]: 5.39 µM | IC50 [6]: 6.9 µM

B5: CEP192 468-533 F490D/F508D/I518D: CEP192 468-533 variant replacing hydrophobic residues recognising two regions of N-lobe (protein)
chain: T1 sequence (looked up) with F23D, F41D, I51D
modifications: left off: His6, N-terminal, cleaved | SUMO, N-terminal, cleaved
notes: CEP192 468-533 variant replacing hydrophobic residues recognising two regions of N-lobe
IC50 [5]: > 10 µM | IC50 [6]: > 10 µM

B6: CEP192 468-533 F508D/I518D/F525D: CEP192 468-533 triple mutant (protein, UniProt Q8TEP8 468-533, looked up, variant F508D I518D F525D)
chain: T1 sequence (looked up) with F41D, I51D, F58D
IC50 [5]: > 10 µM | IC50 [6]: > 10 µM

B7: CEP192 1-995: longer CEP192 fragment used by Park et al 2023 (protein, UniProt Q8TEP8 1-995, looked up, fragment)
chain: MEDFRGIAEESFPSFLTNSLFGNSGILENVTLSSNLGLPVAVSTLARDRSSTDNRYPDIQASYLVEGRFSVPSGSSPGSQSDAEPRERLQLSFQDDDSISRKKSYVESQRLSNALSKQSALQMETAGPEEEPAGATESLQGQDLFNRASPLEQAQDSPIDFHLQSWMNNKEPKIVVLDAGKHFEDKTLKSDLSHTSLLENEKLILPTSLEDSSDDDIDDEMFYDDHLEAYFEQLAIPGMIYEDLEGPEPPEKGFKLPTNGLRQANENGSLNCKFQSENNSSLISLDSHSSETTHKESEESQVICLPGTSNSIGTGDSRRYTDGMLPFSSGTWGTEKEIENLKGIVPDLNSECASKDVLVKTLRAIDVKLNSDNFHDANANRGGFDLTDPVKQGAECPHQNKTVLHMDGCLDTETPTVSIQENVDVASLKPISDSGINFTDAIWSPTCERRTCECHESIEKNKDKTDLPQSVVYQNEEGRWVTDLAYYTSFNSKQNLNVSLSDEMNEDFRSGSEAFDLIAQDEEEFNKEHQFIQEENIDAHNTSVALGDTSWGATINYSLLRKSRSTSDLDKDDASYLRLSLGEFFAQRSEALGCLGGGNNVKRPSFGYFIRSPEKREPIALIRKSDVSRGNLEKEMAHLNHDLYSGDLNEQSQAQLSEGSITLQVEAVESTSQVDENDVTLTADKGKTEDTFFMSNKPQRYKDKLPDSGDSMLRISTIASAIAEASVNTDPSQLAAMIKALSNKTRDKTFQEDEKQKDYSHVRHFLPNDLEKSNGSNALDMEKYLKKTEVSRYESALENFSRASMSDTWDLSLPKEQTTQDIHPVDLSATSVSVRAPEENTAAIVYVENGESENQESFRTINSSNSVTNRENNSAVVDVKTCSIDNKLQDVGNDEKATSISTPSDSYSSVRNPRITSLCLLKDCEEIRDNRENQRQNECVSEISNSEKHVTFENHRIVSPKNSDLKNTSPEHGGRGSEDEQESFRPSTSPLSHSS
effect on Aurora-A activity (Aurora-A): no effect seen

B8: CEP192 521-757: recombinant GST-tagged CEP192 521-757 with the Xenopus CEP192 binding site (Joukov et al 2010) (protein, UniProt Q8TEP8 521-757, looked up, fragment)
chain: DEEEFNKEHQFIQEENIDAHNTSVALGDTSWGATINYSLLRKSRSTSDLDKDDASYLRLSLGEFFAQRSEALGCLGGGNNVKRPSFGYFIRSPEKREPIALIRKSDVSRGNLEKEMAHLNHDLYSGDLNEQSQAQLSEGSITLQVEAVESTSQVDENDVTLTADKGKTEDTFFMSNKPQRYKDKLPDSGDSMLRISTIASAIAEASVNTDPSQLAAMIKALSNKTRDKTFQEDEKQK
modifications: GST tag
effect on Maskin/TACC3 phosphorylation by Aurora-A (Aurora-A; Xenopus egg extract, ref Joukov et al. (2010) Figure 4C): lower levels of Maskin/TACC3 phosphorylation | effect on Aurora-A autophosphorylation at Thr288 and Histone H3 phosphorylation (Aurora-A; recombinant GST-tagged CEP192, western blot, ref Joukov et al. (2010) Figure 3G): prevents autophosphorylation of Aurora-A at Thr288
